Measured values taken from paper PMC8551656, “Discovery of a novel role of tumor suppressor PDCD4 in stimulation of translation termination” (The Journal of Biological Chemistry, 2021).

Target: T1, poly(A)-binding protein (PABP) (human, UniProt P11940 1-636)
T1 construct: source: E. coli BL21, purified (Ni-NTA agarose, ion-exchange chromatography)
Experiment: pull-down; GST-PDCD4 (40 pmol) incubated with PABP (40 pmol) in solution, 20 μl, 1 h at 4 °C, 25 mM Tris-HCl pH 7.5, 10% glycerol, 100 mM KCl, 2.5 mM MgCl2, 2 mM DTT, 0.25 mM spermidine, 0.2 mM GTP; then held on glutathione-sepharose 4B, four washes, release by TEV protease, western blot
Details: both partners purified

T1 sequence (P11940 whole entry): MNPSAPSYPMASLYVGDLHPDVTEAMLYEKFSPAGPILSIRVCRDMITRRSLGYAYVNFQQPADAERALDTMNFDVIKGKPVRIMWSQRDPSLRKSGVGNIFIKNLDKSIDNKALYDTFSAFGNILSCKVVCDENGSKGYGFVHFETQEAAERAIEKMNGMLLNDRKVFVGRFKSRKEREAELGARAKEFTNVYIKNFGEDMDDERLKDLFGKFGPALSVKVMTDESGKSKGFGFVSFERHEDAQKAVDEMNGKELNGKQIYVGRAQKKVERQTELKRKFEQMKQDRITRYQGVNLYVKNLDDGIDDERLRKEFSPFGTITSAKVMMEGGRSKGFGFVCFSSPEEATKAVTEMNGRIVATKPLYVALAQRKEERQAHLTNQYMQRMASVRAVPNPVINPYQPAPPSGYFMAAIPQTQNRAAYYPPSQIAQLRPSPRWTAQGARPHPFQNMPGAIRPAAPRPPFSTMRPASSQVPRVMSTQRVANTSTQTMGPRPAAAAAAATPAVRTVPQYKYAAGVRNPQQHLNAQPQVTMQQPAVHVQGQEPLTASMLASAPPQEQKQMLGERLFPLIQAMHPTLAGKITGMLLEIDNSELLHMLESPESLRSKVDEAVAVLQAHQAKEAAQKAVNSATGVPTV

B1: GST-tagged programmed cell death 4 protein (PDCD4) (natural protein, human, UniProt Q53EL6-1 1-469, looked up)
chain: MDVENEQILNVNPADPDNLSDSLFSGDEENAGTEEIKNEINGNWISASSINEARINAKAKRRLRKNSSRDSGRGDSVSDSGSDALRSGLTVPTSPKGRLLDRRSRSGKGRGLPKKGGAGGKGVWGTPGQVYDVEEVDVKDPNYDDDQENCVYETVVLPLDERAFEKTLTPIIQEYFEHGDTNEVAEMLRDLNLGEMKSGVPVLAVSLALEGKASHREMTSKLLSDLCGTVMSTTDVEKSFDKLLKDLPELALDTPRAPQLVGQFIARAVGDGILCNTYIDSYKGTVDCVQARAALDKATVLLSMSKGGKRKDSVWGSGGGQQSVNHLVKEIDMLLKEYLLSGDISEAEHCLKELEVPHFHHELVYEAIIMVLESTGESTFKMILDLLKSLWKSSTITVDQMKRGYERIYNEIPDINLDVPHSYSVLERFVEECFQAGIISKQLRDLCPSRGRKRFVSEGDGGRLKPESY
notes: human PDCD4, isoform 1, UniProt Q53EL6-1; cDNA cloned into pGEX-6p-1; printed primers run from the start codon to the last codon; Held on glutathione-sepharose by GST in the pull-down; also called GST-PDCD4; recombinant PDCD4; source: E. coli BL21, purified (glutathione-sepharose 4B, eluted with glutathione; HiTrapQ)
B1: binds.
